# Patent US20140017234A1
# “And” between values parts separate entries of the source, which are not always exact repeats. Identical values can stand only once. Like-named read-outs stand apart in the source and are kept apart here.
# Assays:
# [1] = target: clade A/E 93TH057-derived gp120 core (HIV-1 clade A/E strain 93TH057)
# [2] = target: HIV-1 YU-2 Env (gp120) mutant A281S (HIV-1 strain YU-2) (UniProt P35961)
# [3] = target: HIV-1 YU-2 Env (gp120) mutant N280Y (HIV-1 strain YU-2) (UniProt P35961)
# [4] = target: YU-2^N279H (HIV-1)
# [5] = target: HIV-1 YU-2 Env (gp120) mutant A281T (HIV-1 strain YU-2) (UniProt P35961)
# [6] = target: HIV-1 YU-2 Env (gp120) mutant A281T (HIV-1 strain YU-2) (UniProt P35961); test: cell-based or functional assay
# [7] = target: HIV-1 YU-2 Env (gp120) mutant T278A (HIV-1 strain YU-2) (UniProt P35961)
# [8] = target: HIV-1 YU-2 Env (gp120) mutant N276S (HIV-1 strain YU-2) (UniProt P35961)
# [9] = target: HIV-1 YU-2 Env (gp120) mutant N280Y (HIV-1 strain YU-2) (UniProt P35961); remark: listed apart in the source
# [10] = target: HIV-1 YU-2 Env (gp120) mutant N280D (HIV-1 strain YU-2) (UniProt P35961)
# [11] = target: HIV-1 YU-2 Env (gp120) mutant N279K (HIV-1 strain YU-2) (UniProt P35961)
# [12] = target: HIV-1 YU-2 Env (gp120) mutant N279K (HIV-1 strain YU-2) (UniProt P35961); remark: listed apart in the source
# [13] = target: YU-2^R456W (HIV-1)
# [14] = target: HIV-1 YU-2 Env (gp120) mutant N280D (HIV-1 strain YU-2) (UniProt P35961); remark: listed apart in the source
Substance,Kd [1],"IC50 (pseudovirus neutralization, TZM-bl cells) [4]","IC50 (pseudovirus neutralization, TZM-bl cells), first of the two values given [5]","IC50 (pseudovirus neutralization, TZM-bl cells), second of the two values given [5]",IC50 (pseudovirus neutralization) [7],IC50 (pseudovirus neutralization) [8],"IC50 (pseudovirus neutralization, TZM-bl cells) [10]","IC50 (pseudovirus neutralization, TZM-bl cells) [11]","IC50 (pseudovirus neutralization, TZM-bl cells) [12]",further results
45-46m2 Fab (NIH45-46 with G54W in the heavy chain and S28Y in the light chain),51 nM and 57 nM,–,–,–,–,–,–,–,–,–
45-46m2 IgG (NIH45-46 with G54W in the heavy chain and S28Y in the light chain) (antibody),–,0.452 µg/mL,0.1 µg/mL,> 50 µg/mL,0.001 µg/mL,0.006 µg/mL,0.435 µg/mL,–,–,"IC50 (read off the curve) [2]: 0.01 µg/mL; IC50 (pseudovirus neutralization, TZM-bl cells) [3]: 2.23 µg/mL; plateau of the in vitro neutralization curve [6]: 50%; IC50 (pseudovirus neutralization, TZM-bl cells) [9]: 2.23 µg/mL"
45-46m7 IgG (45-46m2 + HC W47V) (antibody),–,0.245 µg/mL,0.1 µg/mL,> 50 µg/mL,0.001 µg/mL,0.003 µg/mL,0.139 µg/mL,2.41 µg/mL,2.41 µg/mL,IC50 (read off the curve) [2]: 0.01 µg/mL; plateau of the in vitro neutralization curve [6]: 50%
45-46m25 IgG (45-46m2 + HC W47I) (antibody),–,–,0.1 µg/mL,> 50 µg/mL,–,–,0.19 µg/mL,–,2.59 µg/mL,–
45-46m28 IgG (45-46m2 + HC W47T) (antibody),–,–,0.1 µg/mL,> 50 µg/mL,–,–,–,0.65 µg/mL,0.652 µg/mL,–
NIH45-46 Fab,221 nM and 178 nM,–,–,–,–,–,–,–,–,–
NIH45-46^G54W Fab,62 nM and 72 nM,–,–,–,–,–,–,–,–,–
NIH45-46^G54W IgG (antibody),–,> 50 µg/mL,0.1 µg/mL,> 50 µg/mL,0.001 µg/mL,0.004 µg/mL,–,> 50 µg/mL,–,"IC50 (pseudovirus neutralization, TZM-bl cells) [13]: 5.67 µg/mL; IC50 (pseudovirus neutralization, TZM-bl cells) [3]: > 50 µg/mL; IC50 (pseudovirus neutralization, TZM-bl cells) [14]: > 50 µg/mL"
